B1: TCR of clone LMP2#1 (TCR)
alpha TRAV26-1*01 TRAJ34*01 CDR3: CIVTRFYTDKLIF
beta TRBV14*02 TRBJ2-1*01 CDR3: CASSSPGSRPYNEQFF
B2: TCR of clone WT1#3-3 (TCR)
alpha TRAV12-1*01 TRAJ9*01 CDR3: CVVRGGGFKTIF
beta TRBV20-1*01 TRBJ2-6*01 CDR3: CSARAGTGGANVLTF

How the values were obtained:
[1] = biological target: T1, LMP2 (Epstein-Barr virus latent membrane protein 2) peptide on HLA-A*24:02 (human); test: multimer staining
T1 peptide: IYVLVMLVL

[2] = biological target: T2, WT1 (modified form of the WT1 peptide) peptide on HLA-A*24:02 (human); test: killing
T2 peptide: CYTWNQMNL

Binder | binding result [1] | binding result [2]
B1 | recognises | 
B2 |  | recognises
